# According to paper PMC9669585:
# Biological target: mCherry-PEX5(TPR) (human) (UniProt P50542)
# Test: FRET or BRET; flowFRET competition in living pex5-/- MEF; mCherry-PEX5(TPR) as acceptor, EGFP-PTS1(SCP2) as donor, Cerulean-tagged protein as competitor; apparent KD1^app and KD2^app by fitting, plotted as Log10(KD2^app)/Log10(KD1^app)
substance,measurement,value
Cerulean-PTS1(SCP2) (peptide),Log10(KD2^app)/Log10(KD1^app) against the donor EGFP-PTS1(SCP2),1
